B1: Nucleoporin NIC96 (Chaetomium thermophilum (strain DSM 1495 / CBS 144.50 / IMI 039719)), G0S024 (parent)
chain: MSLIGNGPSVPPSSTKASLFSSPTTSANPTGGLFGSTTGGSSLFAPKTAGSTTTSTTQPTSTTGLGTSLFGTSTTANTQNTANAARPSLFTAGNSIFGTSTTQPGLGASSLTTAATSNQQAQQQQQQRQQHQQAAPTGALFDSLLARNKKQAEGETALGELPSLQLGLADLRQRLRKLGPSSDRPIEPGKAHYFLAASGVDPGAAVRDLGALGLQAKTERTAASVGPAAGPSGVSTTGFGTGLGEVDVDTYLSNLQTKTTLSMIADGLERSARDFDAFLEENVTLEWEAQRKRIYQHFGIKPRDSSVAGTTTAQPTATPSKDGQGTFGRSRRKASQPPPGERPAQRMSILGRSTMMRSVIGTPTRIGAHAPEFSDVEARKDSSGAAVASVDDRFLREKQAKLAEKIREFNDARQRGTPFYICRDLADLESKSGDRHGPHIVEAYRAVMEMVGEHPDAGEAPRERQFAKMYLDPNTQSANALAMRKQILKGATTFLEKQFWNEVNSLIAKYPQDANLGGLPDVVSKIKAYIRLRIARKTLVPDNVELQQINGEYVWAIVFYLLRAGFVTEAAQYVNSNQAHFRAIDRTFSGYINSYASSEERRLKRQMQDRCMSEYNQRIRNAPEGSIDPFRMACYKIIGRCDLSNRSLDGLQTDVNDWIWLQFNLARETDRSLELAGESYGLAELQASIREIGLKHFPKTAAEDTNGSFGMFFYLQILAGMFEQAIAYLYPFSYVDAVHFAIALTYYGLLRPVDAASAGNELLSHNTRSMPQINFGRMLGYYTRDFRAANPAAAVDYLVLICLNADEAAGGQQAQAALCHEALRELVLESREFSRLIGDIRPDGRRIRGVIEERGPLIALGQEDDFIRTITLQAASFADDNGRTTDAVLLYHLAEDYDTVVSIVSRALSEAISLEIGEDPMRLIPVKPRVTNAEGQVEEAAPGSSLSLAAIDDPVELAKAMMGMYERDHMFWQKIREPNRVACSVLLQMADIKSLVEQGRWAECLDKIRALDILPLTARGDPGTIRSYAARFPSLAQPVAINVPNLLMWTVLCCMRQRERLAGGQFAGNESTARLMMDELKQMTVDLMAYTSQLRYRLPPHLHEALARASAD

Variants of: B1
Conditions: with nu192_chatd NUP192, G0S4T0
Chain of nu192_chatd NUP192, G0S4T0 (G0S4T0 whole entry): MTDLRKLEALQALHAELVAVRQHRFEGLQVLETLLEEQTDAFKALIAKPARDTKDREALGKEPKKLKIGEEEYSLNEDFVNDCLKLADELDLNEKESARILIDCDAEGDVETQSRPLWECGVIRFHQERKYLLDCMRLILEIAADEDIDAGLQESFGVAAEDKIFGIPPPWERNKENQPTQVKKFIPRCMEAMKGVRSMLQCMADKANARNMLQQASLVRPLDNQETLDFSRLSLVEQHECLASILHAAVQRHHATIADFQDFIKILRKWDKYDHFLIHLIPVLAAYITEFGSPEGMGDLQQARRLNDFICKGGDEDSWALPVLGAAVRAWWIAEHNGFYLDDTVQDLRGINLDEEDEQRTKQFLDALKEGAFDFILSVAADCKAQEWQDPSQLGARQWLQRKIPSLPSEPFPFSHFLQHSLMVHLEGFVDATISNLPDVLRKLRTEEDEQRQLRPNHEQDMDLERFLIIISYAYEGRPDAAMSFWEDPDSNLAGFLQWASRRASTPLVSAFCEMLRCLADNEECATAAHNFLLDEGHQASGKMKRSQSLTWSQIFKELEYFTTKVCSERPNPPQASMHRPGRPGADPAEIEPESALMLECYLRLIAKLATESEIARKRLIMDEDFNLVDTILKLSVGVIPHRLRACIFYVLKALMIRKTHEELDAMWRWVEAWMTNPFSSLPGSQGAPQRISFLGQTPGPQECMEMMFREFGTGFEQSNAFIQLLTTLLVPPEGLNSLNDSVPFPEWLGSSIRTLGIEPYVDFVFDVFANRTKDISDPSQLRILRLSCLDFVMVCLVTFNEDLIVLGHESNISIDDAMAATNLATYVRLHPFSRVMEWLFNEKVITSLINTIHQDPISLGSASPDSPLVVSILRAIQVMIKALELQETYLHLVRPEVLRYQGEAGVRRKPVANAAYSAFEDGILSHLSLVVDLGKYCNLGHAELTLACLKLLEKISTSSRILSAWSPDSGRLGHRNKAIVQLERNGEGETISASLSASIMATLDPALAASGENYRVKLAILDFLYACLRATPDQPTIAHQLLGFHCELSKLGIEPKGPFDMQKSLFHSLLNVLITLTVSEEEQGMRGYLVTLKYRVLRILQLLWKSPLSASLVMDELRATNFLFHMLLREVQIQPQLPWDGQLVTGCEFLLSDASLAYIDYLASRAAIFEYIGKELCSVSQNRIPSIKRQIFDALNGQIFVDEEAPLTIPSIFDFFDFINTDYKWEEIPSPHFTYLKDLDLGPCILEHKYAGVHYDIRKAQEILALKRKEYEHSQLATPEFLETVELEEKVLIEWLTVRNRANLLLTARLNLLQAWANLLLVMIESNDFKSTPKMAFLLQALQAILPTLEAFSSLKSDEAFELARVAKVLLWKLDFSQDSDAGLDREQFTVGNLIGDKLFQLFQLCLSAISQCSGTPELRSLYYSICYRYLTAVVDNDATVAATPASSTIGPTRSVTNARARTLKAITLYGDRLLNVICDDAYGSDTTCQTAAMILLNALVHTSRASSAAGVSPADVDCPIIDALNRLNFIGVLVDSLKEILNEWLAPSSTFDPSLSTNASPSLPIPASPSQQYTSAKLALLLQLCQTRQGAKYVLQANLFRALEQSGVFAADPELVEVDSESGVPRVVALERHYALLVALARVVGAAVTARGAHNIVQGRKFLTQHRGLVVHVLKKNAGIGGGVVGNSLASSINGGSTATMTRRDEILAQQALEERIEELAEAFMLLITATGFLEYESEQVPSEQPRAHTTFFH
With Y251A;I264A;F275A;W287A the “effect of a mutation on the interaction” value was “decreasing interaction”.

Source: IntAct's records for PubMed 21784248
